B1: M. tuberculosis AccA1 (Rv2501c) (natural protein)
chain: MFDTVLVANRGEIAVRVIRTLRRLGIRSVAVYSDPDVDARHVLEADAAVRLGPAPARESYLDIGKVLDAAARTGAQAIHPGYGFLAENADFAAACERARVVFLGPPARAIEVMGDKIAAKNAVAAFDVPVVPGVARAGLTDDALVTAAAEVGYPVLIKPSAGGGGKGMRLVQDPARLPEALVSARREAMSSFGDDTLFLERFVLRPRHIEVQVLADAHGNVVHLGERECSLQRRHQKVIEEAPSPLLDPQTRERIGVAACNTARCVDYVGAGTVEFIVSAQRPDEFFFMEMNTRLQVEHPVTEAITGLDLVEWQLRVGAGEKLGFAQNDIELRGHAIEARVYAEDPAREFLPTGGRVLAVFEPAGPGVRVDSSLLGGTVVGSDYDPLLTKVIAHGADREEALDRLDQALARTAVLGVQTNVEFLRFLLADERVRVGDLDTAVLDERSADFTARPAPDDVLAAGGLYRQWALARRAQGDLWAAPSGWRGGGHMAPVRTAMRTPLRSETVSVWGPPESAQVQVGDGEIDCASVQVTREQMSVTISGLRRDYRWAEADRHLWIADERGTWHLREAEEHKIHRAVGARPAEVVSPMPGSVIAVQVESGSQISAGDVVVVVEAMKMEHSLEAPVSGRVQVLVSVGDQVKVEQVLARIKD
notes: also called BC α-subunit of the M. tuberculosis MCC

What was measured:
[1] = target: the molecule itself; experiment: negative-stain electron microscopy
[2] = target: B1; experiment: pull-down; conditions: partners not purified

Binder	stoichiometry N [1]	binding result [2]
B1	3	–
M. tuberculosis AccD1 (Rv2502c), hexa-histidine tagged (natural protein, also called CT β-subunit of the M. tuberculosis MCC; not shown: His6, N-terminal, kept) MTTPSIAIAPSFADEHRRLVAELNNKLAAAALGGNERARKRHVSRGKLLPRERVDRLLDPGSPFLELAPLAAGGMYGDESPGAGIITGIGRVSGRQCVIVANDATVKGGTYYPMTVKKHLRAQEVALQNMLPCIYLVDSGGAFLPRQDEVFPDREHFGRIFYNQATMSAKGIPQVAAVLGSCTAGGAYVPAMSDEAVIVREQGTIFLGGPPLVKAATGEIVSAEELGGGDLHSRTSGVTDHLADDDEDALRIVRAIADTFGPCEPAQWDVRRSVEPKYPQAELYDVVPPDPRVPYDVHEVVVRIVDGSEFSEFKAKYGKTLVTAFARVHGHPVGIVANNGVLFSESALKGAHFIELCDKRKIPLLFLQNIAGFMVGRDYEAGGIAKHGAKMVTAVACARVPKLTVVIGGSYGAGNYSMCGRAYSPRFLWMWPNARISVMGGEQAASVLATVRGEQLSAAGTPWSPDEEEAFKAPIRAQYEDQGNPYYSTARLWDDGIIDPADTRTVVGLALSLCAHAPLDQVGYGVFRM	6	binds

Source: article PMC4347857, “Characterization of the Mycobacterial Acyl-CoA Carboxylase Holo Complexes Reveals Their Functional Expansion into Amino Acid Catabolism” (PLoS Pathogens, 2015)
